From patent US20150344570A1 (published 2015)
Changes are numbered by the printed parent chain.

T1: FcγRIIa H (FcγRIIa, allotype with His at position 131), extracellular domain with C-terminal His tag (human, UniProt P12318 34-217)
T1 construct: extracellular domain; also called FcgRIIa H; 2aH; not shown: His tag at the C terminus
T1 sequence (looked up): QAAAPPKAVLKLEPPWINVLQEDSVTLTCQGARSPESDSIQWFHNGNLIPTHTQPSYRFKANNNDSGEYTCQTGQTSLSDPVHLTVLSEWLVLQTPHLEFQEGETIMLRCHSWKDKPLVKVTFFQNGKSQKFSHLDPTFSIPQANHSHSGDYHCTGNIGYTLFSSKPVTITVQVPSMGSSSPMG

T2: FcγRIIb, extracellular domain with C-terminal His tag (human, UniProt P31994 43-217)
T2 construct: extracellular domain; also called FcgRIIb; 2b; not shown: His tag at the C terminus
T2 sequence (looked up): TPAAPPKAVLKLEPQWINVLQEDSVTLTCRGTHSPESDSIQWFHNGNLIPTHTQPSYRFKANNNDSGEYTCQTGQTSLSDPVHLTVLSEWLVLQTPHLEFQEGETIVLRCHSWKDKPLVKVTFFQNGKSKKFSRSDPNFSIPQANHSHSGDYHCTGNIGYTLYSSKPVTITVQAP

T3: FcgRIIaR (human, UniProt P12318 34-217)
T3 construct: extracellular domain; also called FcγRIIa R; FcgRIIa type R; not shown: His tag attached to the C terminus
T3 sequence (looked up): T1 sequence (looked up) with H134R

T4: FcgRIIaH (human, UniProt P12318 34-217)
T4 construct: extracellular domain; also called FcγRIIa H; FcgRIIa type H; not shown: His tag attached to the C terminus
T4 sequence (looked up): T1 sequence (looked up)

T5: FcgRIIb (human, UniProt P31994 43-217)
T5 construct: extracellular domain; also called FcγRIIb; 2b; not shown: His tag attached to the C terminus
T5 sequence (looked up): T2 sequence (looked up)

B1: GpH7-A5/GpH7-B3 variant A327_09D/GpL16-k0 (antibody, human IgG1, kappa)
heavy 1: not shown
heavy 2: not shown
light: DIVMTQSPLSLPVTPGEPASISCQASESLVHSNRNTYLHWYLQKPGQSPQLLIYKVSNRFSGVPDRFSGSGSGTDFTLKISRVEAEDVGVYYCSQNTHVPPTFGQGTKVEIERTVAAPSVFIFPPSDEQLKSGTASVVCLLNNFYPREAKVQWKVDNALQSGNSQESVTEQDSKDSTYSLSSTLTLSKADYEKHKVYACEVTHQGLSSPVTKSFNRGEC
notes: Heterodimerized anti-glypican-3 IgG1; mutation in one H chain only; also called He Ab
B2: GpH7-A5/GpH7-B3 variant L328_15Y/GpL16-k0 (antibody, human IgG1, kappa)
heavy 1: not shown
heavy 2: not shown
light: B1 light
notes: as for B1
B3: GpH7-A5/GpH7-B3 variant L328_06M/GpL16-k0 (antibody, human IgG1, kappa)
heavy 1: not shown
heavy 2: not shown
light: B1 light
notes: as for B1
B4: GpH7-A5/GpH7-B3 variant L328_09D/GpL16-k0 (antibody, human IgG1, kappa)
heavy 1: not shown
heavy 2: not shown
light: B1 light
notes: as for B1
B5: GpH7-A5/GpH7-B3 variant A327_18N/GpL16-k0 (antibody, human IgG1, kappa)
heavy 1: not shown
heavy 2: not shown
light: B1 light
notes: as for B1
B6: GpH7-A5/GpH7-B3 variant A327_10E/GpL16-k0 (antibody, human IgG1, kappa)
heavy 1: not shown
heavy 2: not shown
light: B1 light
notes: as for B1
B7: GpH7-A5/GpH7-B3 variant L328_05P/GpL16-k0 (antibody, human IgG1, kappa)
heavy 1: not shown
heavy 2: not shown
light: B1 light
notes: as for B1
B8: GpH7-A5/GpH7-B3 variant A327_14T/GpL16-k0 (antibody, human IgG1, kappa)
heavy 1: not shown
heavy 2: not shown
light: B1 light
notes: as for B1
B9: GpH7-A5/GpH7-B3 variant L328_03V/GpL16-k0 (antibody, human IgG1, kappa)
heavy 1: not shown
heavy 2: not shown
light: B1 light
notes: as for B1
B10: H240-Kn224/H240-Hl068/L73-k0 (antibody, human IgG1, kappa)
heavy 1: QDQLVQSGAEVKKPGASVKVSCKASGFNIKDTYIQWVRQAPGQGLEWMGRIDPLRKQTKYREKFEGRVTITADTSTNTAYMELSSLRSEDTAVYYCVRSGREFDYWGQGTLVTVSSASTKGPSVFPLAPSSKSTSGGTAALGCLVKDYFPEPVTVSWNSGALTSGVHTFPAVLQSSGLYSLSSVVTVPSSSLGTQTYICNVNHKPSNTKVDKKVEPKSCDKTHTCPPCPAPEHYWGPMVFLFPPKPKDTLMISRTPEVTCVVVDVSDEDPEVKFNWYVDGVEVHNAKTKPREEQYNATYRVVSVLTVLHQDWLNGKEYKCKVSNKDLPAPIEKTISKAKGQPREPQVCTLPPSRDELTKNQVSLWCLVKGFYPSDIAVEWESNGQPENNYKTTPPVLDSDGSFFLYSKLTVDKSRWQQGNVFSCSVMHEALHNHYTQKSLSLSP
heavy 2: QDQLVQSGAEVKKPGASVKVSCKASGFNIKDTYIQWVRQAPGQGLEWMGRIDPLRKQTKYREKFEGRVTITADTSTNTAYMELSSLRSEDTAVYYCVRSGREFDYWGQGTLVTVSSASTKGPSVFPLAPSSKSTSGGTAALGCLVKDYFPEPVTVSWNSGALTSGVHTFPAVLQSSGLYSLSSVVTVPSSSLGTQTYICNVNHKPSNTKVDKKVEPKSCDKTHTCPPCPAPELLGGPSVFLFPPKPKDTLMISRTPEVTCVVVDVSHEEPEVKFNWYVDGVEVHNAKTKPREEQYNSTYRVVSVLTVLHQDWLNGKEYKCKVSNDALPKPIEETISKAKGQPREPQVYTLPPSRCELTKNQVSLSCAVKGFYPSDIAVEWESNGQPENNYKTTPPVLDSDGSFFLVSKLTVDKSRWQQGNVFSCSVMHEALHNHYTQKSLSLSP
light: DIQMTQSPSSLSASVGDRVTITCRASQDIHKYIAWYQQKPGQAPRLLIQYTSTLQPGVPSRFSGSGSGTDYTFTISSLQPEDIATYYCLQYEQLRTFGGGTKVEIKRTVAAPSVFIFPPSDEQLKSGTASVVCLLNNFYPREAKVQWKVDNALQSGNSQESVTEQDSKDSTYSLSSTLTLSKADYEKHKVYACEVTHQGLSSPVTKSFNRGEC
notes: Anti-epiregulin heterodimerized IgG1, knobs-into-holes

target: T1, FcγRIIa H (FcγRIIa, allotype with His …); test: SPR (Biacore); He/Con_2aH divided by He/Con_2b (FcγRIIb)

Row | He_2aH/2b (IIaH/IIb) | Binder
1 | 0.61 ratio | B1
2 | 0.47 ratio | B2
3 | 0.73 ratio | B3
4 | 0.29 ratio | B4
5 | 0.59 ratio | B5
6 | 0.65 ratio | B6
7 | 0.7 ratio | B7
8 | 0.51 ratio | B8
9 | 0.78 ratio | B9

target: T1, FcγRIIa H (FcγRIIa, allotype with His …); test: SPR (Biacore), relative binding vs GpH7-A5/GpH7-B3/GpL16-k0

Row | He/Con_2aH | Binder
10 | 105 % of HeCon Ab (=100) | B1
11 | 90 % of HeCon Ab (=100) | B2
12 | 104 % of HeCon Ab (=100) | B3
13 | 58.5 % of HeCon Ab (=100) | B4
14 | 66.8 % of HeCon Ab (=100) | B5
15 | 91.3 % of HeCon Ab (=100) | B6
16 | 45.4 % of HeCon Ab (=100) | B7
17 | 45.6 % of HeCon Ab (=100) | B8
18 | 97.8 % of HeCon Ab (=100) | B9

target: T2, FcγRIIb, extracellular domain with …; test: as above

Row | He/Con_2b | Binder
19 | 172 % of HeCon Ab (=100) | B1
20 | 193 % of HeCon Ab (=100) | B2
21 | 142 % of HeCon Ab (=100) | B3
22 | 199 % of HeCon Ab (=100) | B4
23 | 113 % of HeCon Ab (=100) | B5
24 | 140 % of HeCon Ab (=100) | B6
25 | 65.1 % of HeCon Ab (=100) | B7
26 | 89.4 % of HeCon Ab (=100) | B8
27 | 126 % of HeCon Ab (=100) | B9

target: T3, FcgRIIaR; test: SPR (Biacore); KD of H240-Kn033/H240-Hl033/L73-k0 divided by KD of this variant
Description: (§1) H240-Kn204/H240-Hl211/L73-k0 and H240-Kn205/H240-Hl212/L73-k0 were prepared according to the method of Reference Example 1, by combining H240-Kn204 as one of the H chains and L73-k0 as the L chains with H240-Hl211 as the other H chain, and by combining H240-Kn205 as one of the H chains and L73-k0 as the L chains with H240-Hl212 as the other H chain, and then expressing them. The binding of the prepared variants to FcgRIa, FcgRIIaR, FcgRIIaH, FcgRIIb, FcgRIIIaF, and FcgRIIIaV was measured according to the method of Reference Example 8.
(§2) “fold 2aR”, “fold 2aH”, “fold 2b”, “fold 3aF”, and “fold 3aV” show the relative binding activity of each variant to FcgRIIaR, FcgRIIaH, FcgRIIb, FcgRIIIaF, and FcgRIIIaV, respectively, when the binding activity of H240-Kn033/H240-Hl033/L73-k0, a variant produced by introducing only alterations that promote formation of a heterodimerized antibody into a native IgG1, is defined as 1. Specifically, they are values obtained by dividing the KD value of H240-Kn033/H240-Hl033/L73-k0 for each FcgR by the KD value of an individual variant for each FcgR.
(§3) Analysis of interaction between objective antibody and the FcγR was carried out using Biacore T100 (GE Healthcare), Biacore T200, Biacore A100, and Biacore 4000. HBS-EP+ (GE Healthcare) was used as the running buffer, and the measurement temperature was set to 25° C. Chips produced by immobilizing the antigen peptide by the amine coupling method to a Series S sensor Chip CM5 (GE Healthcare), chips produced by allowing preliminarily biotinylated antigen peptides to interact with and immobilize onto a Series S Sensor Chip SA (certified) (GE Healthcare), chips produced by immobilizing Protein L (ACTIGEN, BioVision) to Series S Sencor Chip CM5 (GE Healthcare), or chips produced by immobilizing Protein A/G (Thermo Scientific) to Series S Sencor Chip CM5 (GE Healthcare) were used. Antibodies of interest were captured onto these chips, and allowed to interact to each FcγR diluted with running buffer.

Row | fold 2aR | Binder
28 | 13.7 fold | B10

target: T4, FcgRIIaH; test: as above
Description: as §1, §2, §3

Row | fold 2aH | Binder
29 | 9.1 fold | B10

target: T5, FcgRIIb; test: as above
Description: as §1, §2, §3

Row | fold 2b | Binder
30 | 9.2 fold | B10

target: T6, FcgRIIIaF (human, UniProt P08637 17-208); test: as above
T6 construct: extracellular domain; also called FcγRIIIa F; 3aF; not shown: His tag attached to the C terminus
T6 sequence (P08637 17-208): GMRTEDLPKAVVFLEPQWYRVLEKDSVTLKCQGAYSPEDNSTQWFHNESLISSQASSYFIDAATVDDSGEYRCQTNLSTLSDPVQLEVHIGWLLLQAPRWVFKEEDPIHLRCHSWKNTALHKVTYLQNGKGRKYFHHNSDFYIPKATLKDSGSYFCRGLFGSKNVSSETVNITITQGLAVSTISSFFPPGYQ
Description: as §1, §2, §3

Row | fold 3aF | Binder
31 | 72.5 fold | B10

target: T7, FcgRIIIaV (human, UniProt P08637 17-208); test: as above
T7 construct: extracellular domain; also called FcγRIIIa V; 3aV; not shown: His tag attached to the C terminus
T7 sequence (P08637 17-208 F176V limits assumed): as the sequence (P08637 17-208) above, with F160V counted along it
Description: as §1, §2, §3

Row | fold 3aV | Binder
32 | 90.6 fold | B10
